41 sequences from the nanobody polyreactivity screen of Harvey et al. (2022) can be followed below.

The data set is described as follows: yeast display, Sf9 membrane polyspecificity reagent, FACS + sequencing; frameworks hold sequencing errors. A digest of the protocol: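 Sorting gates, low and high (top ~1%), were placed on anti-HA fluorescence to track expression and on streptavidin fluorescence to track reagent binding. A clone's polyreactivity label is taken from the gate it came out of. The reagent was 10% biotinylated, detergent-solubilized Sf9 membrane, applied for 1 hour at 4 °C to galactose-induced yeast display cells.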
Consider “QVQLVESGGGLVQAGGSLRLSCAASGFTFKYYAMGWYRQAPGKERELVAVISSSGGSTYYADSVKGRFTISRDNAKNTVYLQMNSLKPEDTAVYYCAAELVYRYYVKDADDYWGQGTQVTVSS”, for which the “polyreactivity (PSR sort gate)” value is reported as “low polyreactivity”.
The result for “QVQLVESGGGLVQAGGSLRLSCAASGRTFVYTMGWYRQAPGKERELVAAIRYSGGRTYYADSVKGRFTISRDNAKNTVYLQMNSLKPEDTAVYYCAARNYATGVRYDYWGQGTQVTVSS” reads “high polyreactivity”; that for “QVQLVESGGGLVQAGGSLRLSCADSGLIFKYYAMGWYRQAPGKERELVAVITSSGGSTYYADSVKGRFTISRDNAKNTVYLQMNSLKPEDTAVYYCAARRVRWPYDYWGQGTQVTVSS”, “high polyreactivity”; that for “QVQLVESGGGLVQAGGSLRLSCAASGSIFVWYAMGRYRQAPGQERELVARITSGGRTNYADSVKGRFTISRDNAKNTVYLQMISLKPEDTAVYYCAAGRVSWSPDYYWGQGTQGTVSS”, “high polyreactivity”.
Then “QVQLVESGGGLVQAGGSLRLSCAASGRIFARNAMGWYRQAPGKEREFVAAITHSGGNTYYADSVKGRFTISRDNAKNTVYLQMNSLKPEATAVYYCAKDYRSTKYDYWGQGTQVTVSS”, with “low polyreactivity”; and “QVQLVESGGGLVQAGGSLRLSCAASGFIFSYNAMGWYRQAPGKERELVAAISSRGGSTYYADSVKGRFTISRDNAKNTVYLQTKSLKPEDTAVYYCAVASRRVYTAPYDYWGQGTQVTVSS”, with “high polyreactivity”.
The result for “QVQLVESGGGLVQAGGSLRLSCAASGSIFSRYTMAWYRQAPGKERELVARINSSGTSTYYADSVKGRFTISRDNAKNTVFLQMNSLKPEDTAVYYCARTSRHVRYDYWGQGTQVTVSS” reads “low polyreactivity”.
“QVQLVDSGGGLVQAGGSLRLSCAASGFIFPINAMGWYRQAPGKERELVAAITGGGSTSYADSVKGRFTISRDNAKNTVYLQMNSLKPEDTAVYYCATDRLTYTKYGYWGQGTLVTVSS”: the “polyreactivity (PSR sort gate)” value is on record as “low polyreactivity”.
The result for “QVQLVESGGGLVQAGGSLRLSCADSGSIFPFYAMGWYRQAPGKERELVASISSGGSTNYADSVKGRFTISRDNAKKTVYLQMNSLKPEDTAVYYCNAVGTFVRYGTDGRDGVNYDYWGQGTQVTVSS” reads “low polyreactivity”; that for “QVQLVEAGGGLVQAGGSLRLSCAASGRTFKGYAMGWYRPAPGKERELVAAITKRGGSTYYADSVKGRFTISRDNAKNTVYLQMNSLKPEDTAVYYCNADKQGSRHGDDYWGQGTQVTVSS”, “high polyreactivity”.
The result for “QVQLVESGGGLVQAGGSLRLSCAASGFIFERYAMGWYRKAPGKERELVAGIYSGGSTYYADSVKGRFTISRDNAKNTVYLQMNSLKPEDTAVYYCAAFRRQHIIYNYWGQGTQVTVSS” reads “high polyreactivity”; that for “QVQLVESGGGLVQSGGSLRLSCAASGRILSYNTMGSYRQAPGKERELVAAISRGGSTYYADSVKGRFTISRDNAKNTVYLQMNSLKPEDTAVYYCNALLPPGSRKYNYWGQGTQVTVSS”, “high polyreactivity”; that for “QVQLVESGGGLVQAGGSLRLSCAASGTTFEVNAMGWYRQAPGKERELVATITRSGGSTYYADSVKGRFTISRDNAKNTVYLQMNSLKPEDTAVYYCNALWELKWGQGTQVTVSS”, “low polyreactivity”.
For “QVQLVESGGGLVQARGSLRLSCAASGIIFKGYAMGWYRQAPGKERELVAGITRYGGGTYYADSVKGRFTISRDNAMNTVYLQMNRLKPEDTAVYYCAAVRIARAVQDYDYWGQGTQVTVSS”, the “polyreactivity (PSR sort gate)” value is “high polyreactivity”.
Then “QVQLVESGGGLVQGGGSLSLSCAASGSIFLYYAMGWYRQAPGKERELVAGIRRGGRTNYSDSVKGRFTISRDNAKNNVYLQMNSLKPEDTAVDYCAKGGYCGQGTQVTVSS”, with “high polyreactivity”; and “QVQLVESGGGLVQAGGSLRLSCAASGNIFARYAMGWYRQATGKERDLVSAISRSGGSTYYADSVKGRFTISRDNAKNSVYLQMKCLKPEDTAVYYCNAKSYGVLYWFAYDYWGQGTQVTVSS”, with “high polyreactivity”; and “QVQLVESGGGLVQAGGSLRLSCAASGSTFDSYAMGWYRQAPGKERELVAAISRSGGRTYYADSVKGRFTISRDNAKNTVYLQMNSLKPEDTAVYYCNAAYKRWVTPGYDAYDYWGQGTQVTVSS”, with “high polyreactivity”.
“QVQLVESGGGIVQAGGSLRLSCAASGFIFYRYAMGWYRQAPGKERELVAAITGSGARTYYADSVKGRFTISRDNAKNTVYLQMNSLKPEDTAVYYCNARGYRGYDYWGQGTQVTVSS”: the “polyreactivity (PSR sort gate)” value is listed as “high polyreactivity”.
Then “KVQLVESGGGLVQAGGSLRLSCAASGITSSYSAMVWYRQAPGKERELVAAITSSGGSTYYADSVKGRFTISRDNAKNTVYLQMNSLKPEVTAVYYCAARIGQYKAHTRINQYYIRYYWGQGTQVSVSS”, with “low polyreactivity”.
The result for “QVQLVESGGGLVQAGGSSRLSCAASGRTFDDYAMGWYRQAPATERELVAAISSRGGSTYYADSVKGRFTISRDNAKHTVYLQMNSLKPEDTAVYYSNTLQSSHGSSQYDSWGQGTQVTVSS” reads “low polyreactivity”.
Consider “QVQLVESGGGLVQAGGSLRLSCAASGRIFSTYTMGWYRQAPGKEMELVAAIRANGGSTYYADSVKGRFTISRDNAKNTVYLQMNSLKPEDTAVYYCAALYRRYPYHYDSWGQGTQVTVSS”, for which the “polyreactivity (PSR sort gate)” value is listed as “high polyreactivity”.
Then “QLQLVESCGVLVQAGGSLRLSCAASGRTHGNNAMGCYRQAPGKERELVAITYRGGSTYYADSVKGRFTISRDNAKNTVYLQMNSLKPEDTAVYYCNVDIISKVDTNKYEYWGQGTQVTVSS”, with “low polyreactivity”; and “QVQLVESGGGLVQAGGSLRLSCAASGSTFVSYAMGWYRQAPGKERELVAAIRTTSGSTYYADSVKGRFTISRDNAKNTVYLQMNSLKPEDTAVYYCAAAGRGPSFRRYDYWGQGTQVTVSS”, with “high polyreactivity”.
Then “QVQLVESGGGLVQAGGSLRLSCAASGYIFYFNAMGWYRQAPGKERELVAAISSRGTGTYADSVKGRFTISRDNAKNTVYLQMNSLKPEDTAVYYCNAYPSIYPGFYKTFFNMDYWGQGTQVTVSS”, with “low polyreactivity”; and “QVQLVESVGGLVQAGGSLRFTCAASGGTFRVNAMGWYRQAPGKEREFVAAISGSGSSTYYADSVKGRFTISRDNAKNTVYLQMNSLKPEDTAVYYCAARSGVGGDNDYWGQGTQVTVSS”, with “low polyreactivity”; and “QVQLVESGGGLVQAGGSLRLSCAASGSTFANYAMGWYRQAPGKERELVAGISWRGGRTYYADSVKGRFTISRDNAKNTVYLQMNSLKPEDTAVYYCAAEVLKTRWSYDYWGQGTQVTVSS”, with “high polyreactivity”.
The result for “QVQLVESGGGLVQAGGSLRLSCAASGSTFVGNAMGSYRQAPGKERELVATISNSGGRTYYADSVKGRFTISRDNAKNPVYLQRNSLKPEDTAVYYCPADHPAFGPGYSFDYWGQGTQVTVSS” reads “low polyreactivity”; that for “QVQLVESGGGLVQAGGSLRLSCAASGSTLTYYAMGWYRQAPGKERELVAAISVSGGRTYYADSVKGRFTISRDNAKYTVYLQMNSLKPEDTAVYYCNALSSRAGGRGYDYWGQGTHVTVSS”, “high polyreactivity”; that for “QVQLVESGGGLVQAGGSRRLSCAASGIIFYPNAMGWYRQAPGKERELVAAITSDGSTYYADSVKGRFTISRDNAKNTVYLQMNSLKPEDTAVYYCAAWDDYGYDYWGQGTQVTVSS”, “low polyreactivity”.
On to “QVQLVESGGGLVQAGGSLRLSCAASGRILAYYAMAWYRQAPGKERELVAAITSGGGSTYYADSVKGRFTISRDNAKNTVYLQMNSLKPEDTAVYYCAADAYVSSQPMDYWGQGSQVTVSS”, for which the “polyreactivity (PSR sort gate)” value is “high polyreactivity”.
The result for “QVQLVESGGGLVQAGGSLRLSCAAAGLTFQPYVLGWYRQAPGKERELVAAISVRTTRTYYADSVKGRFTISRDNAKNTVYLQMNSLKPEDTAVYYCNVSGVLYPFVSYDYWGQGTHVTVSS” reads “low polyreactivity”.
Then “QVQLVESGGGLVQAGGSLRLSCAASGSTFGQYAMGWYRQAPGKELELVAAISSGGRTNYADSVKGRFTISRDNAKNPVYLQMNSLKPEDTAVYYCAARYYFPFRRFRRMDYWGQGTQVTVSS”, with “high polyreactivity”; and “QVQLVESGGGLVQAGGSLRLSCASYGYIFWSYAMGWYRQAPGKERELVAAISASGGRTYYADSVKGRFTISRDNAKNTVYLQMNSLKPEDTAVYYCNADPGNHAYWYYGEFYYYTYDYWGQGTQVTVSS”, with “low polyreactivity”.
Regarding “QVQLVESGGGLVQAGGSLRLSCAAYGFIFIGYTMGWYRQAPGKERELVATISLGDDSTYYADSVKGRFTISRDNAKNTVYLQMNSLKPEDTAVYYCAADQIDGTTSAYDYWGQGTQVTVSS”, the “polyreactivity (PSR sort gate)” value is reported as “low polyreactivity”.
“QVQLVESGGGLVQAGGSLRLSCASSGIIFHYYAKGWYRQAPGKERELVATISWDGGNTYYADSVKGRFTISRDNAKNRVYLQMNSLKPEDTAVYYCNVYDKAPAYAYWGQGTQVTVSS”: the “polyreactivity (PSR sort gate)” value is “low polyreactivity”.
The result for “QVQLVESGGGLVQAGGSLRLSCAASGSIFVRYAMGWYRQAPGKERELVASIRSRGDSTYYADSVKGRFTISRDNAKNTVYLQMNSLKPEDTAVYYCAGRRYPPRMDYWGQGTQVTVSS” reads “high polyreactivity”; that for “QDQLEESVGGLVQAGGSLRLSCAASGSTFSYYAMGWYRQATGKERELVAAISTLGSSTYYADSVKGRFTISRDNAKNTVNLQMNSLKPEDTAVYYCAVDQYKYDWFYDYYGYTYVYWGQGTQVTVSS”, “high polyreactivity”.
The result for “QVQLVESGGRLVQAGGSLRLSCAASGFTFRYYDMRWYRPAPGKVRELVAAISSGGSTDYADSVKGRFTISRDNAKNTVYLQMNSLKPEDTAVYYCAADWWVVYTYDYWGRGTQVTVSS” reads “low polyreactivity”; that for “QVQLVESGGGLVQAAGSLRLSSAASGRTFVGYSMGWYRQAPGKERELVAAIHWSVGITYYADSVKGRFTISRDNAKNTVYLQMNSLKPEDTAVYYCAADGYDEPDLLVYEPWREDEYWGQGTQVTVSA”, “low polyreactivity”; that for “QVQLGESGGGLVQAGGSLRLSCAASGRIFRWYAMGWYRQAPGKVRELVAAISRSGTSTYYADSVKGRFTISRDNAKNTVYLQMNSLKPEDTAVYYCAADAVIFGMDYWGQGTQVTVSS”, “low polyreactivity”.
Then “QVQLVESGGGFVQAGGSLRLSCAASGSTFHDNAMGWYRQAPGKERELVAGISISGVSTFYADSVKGRFTISRDYAKNTVYLQMNSLKPEDTAVYYCTADDVSAYQRFDYWGQGTQVTVSS”, with “low polyreactivity”.
